In patent publication US20100086958A1, “NOVEL ENZYME” (priority 2008, published 2010):

Tests used:
Assay type in all cases: biochemical
[1] = Steady state kinetics for formate oxidation
Protocol: (§1) BcenFDH1 (Bsp184FDH) and BspFDH2 (Bsp383FDH) catalyzed oxidation of formate to CO2 was monitored by UV/Vis spectrophotometry in a 96-well plate format. A series of eight solutions of formate (0-200 mM) were prepared by successive dilutions of a stock solution of 0.5 M sodium formate in 0.1 M sodium phosphate buffer, pH 7.0. From this series, 170 μL was transferred into wells of the 96-well plate. 10 μL of the FDHs from a stock solution (64.1 μM for BcenFDH1 (Bsp184FDH) and 78.0 μM for BspFDH2 (Bsp383FDH)) were added into each well and equilibrated for 3 min at 30° C. The reaction was initiated by addition of 20 μL of NAD^+ or NADP^+ solution from a freshly prepared stock (10 mM) using an 8-channel pipette. The plate was then immediately placed into the plate reader. The plate was shaken for 5 s to ensure thorough mixing, and then time-based measurements were recorded every 15 s for 10 min. The rate of formate oxidation was calculated using an extinction coefficient of 3.38 mM^−1 (for 200 μL), which was determined using NADH standards. Km and Vmax values were obtained by non-linear regression to the Michaelis-Menten equation (Eq.1 below) using Origin v7 (Microcal Software Inc.).

[2] = Cyclohexanone monooxygenase (CHMO)/BspFDH2 coupled Baeyer-Villiger oxidation of cyclohexanone; details: coupled with CHMO
Protocol: By coupling the enzymatic action of BspFDH2 with that of cyclohexanone monooxygenase (CHMO), oxygen C—C bond insertion, a Baeyer-Viliger (B-V) oxidation (see FIG. 4b), converted (>99% conversion, complete within 4 hours) cyclohexanone (3) to caprolactone (4) with NADPH regeneration.
NADP+ (20 mM, 1 mL) and BspFDH2 (17 mg/mL, 500 μL) were then added and the reaction shaken for 30 minutes at room temperature. After 30 minutes, pre-dialysed CHMO (2 mg/mL, 300 μL) was then added and the reaction shaken at 37° C. The reaction was monitored by GC-MS (Rt˜3.1 minutes). After 4 hr, the reaction mixture was extracted by DCM (3×1 mL) and the combined organic phase was dried and the solvent removed to afford oxepan-2-one (4 above, >99% conversion based on GC chromatogram).

[3] = Steady state kinetics for NAD^+ (FDH-catalysed formate oxidation); details: cofactor NAD^+, 0.18M formate
Protocol: as §1
Similar procedure were used for determination of Michaelis-Menten parameters for NAD^+ and NADP^+. A series of eight solutions of cofactor (0-75 mM) were prepared by successive dilutions of stock solutions. […] of sodium formate solutions (180 mM in well) were transferred into wells of the 96-well plate. 10 μL of the FDHs from a stock solution (64.1 μM for BcenFDH1 (Bsp184FDH) and 78.0 μM for BspFDH2 (Bsp383FDH)) were added into each well and equilibrated for 3 min at 30° C. The reaction was initiated by addition of 20 μL of NAD^+ or NADP^+ solutions using an 8-channel pipette. The plate was then immediately placed into the plate reader. The plate was shaken for 5 s to ensure thorough mixing, and then time-based measurements were recorded every 15 s for 10 min. The rate of formate oxidation was calculated using an extinction coefficient of 3.38 mM^−1 (for 200 μL), which was determined using NADH standards. Km and Vmax values were obtained by non-linear regression to the Michaelis-Menten equation as before.

B1: Bsp383FDH: wild type FDH from Burkholderia sp 383, Seq ID No: 1, C-terminal His-tagged (protein, listed as Burkholderia sp.)
chain: MATVLCVLYPDPVDGYPPRYVRDAIPVITHYADGQTAPTPAGPPGFQPGELVGCVSGALGLRGYMEAHGHTLIVTSDKDSPDSEFERRLPEADVVISQPFWPAYLTAERIARAPKLKLALTAGIGSDHVDLDAAARARITVAEVTGSNSISVAEHVVMTTLALVRNYLPSHAIAQQGGWNIADCVSRSYDVEGMHFGTVGAGRIGLAVLRRLKPFGLQLHYTQRHRLDASIEQELGLTYHADAASLASAVDIVNLQIPLYPSTEHLFDAAMIARMKRGAYLINTARAKLVDRDAVVNALTSGHLAGYGGDVWFPQPAPADHPWRTMPFNGMTPHISGTSLSAQARYAAGTLEILQCWFDGKPIRNEYLIVDGGTLAGTGAQSYRLT
modifications: C-terminal His tag
kcat ([1]; formate oxidation with NADP^+): 6.1148 ± 0.4473 s⁻¹ | Km ([1]; formate oxidation with NAD^+): 50.1 ± 2.69 mM | kcat ([1]; formate oxidation with NAD^+): 0.772 ± 0.0158 s⁻¹ | reaction complete within [2]: ≤ 4 h | conversion of cyclohexanone to caprolactone (oxepan-2-one) ([2]; NADPH regeneration, GC): > 99% | Km [3]: 7.6 ± 2.1 mM | kcat NAD^+ [3]: 0.817 ± 0.13 s⁻¹
